Target: GLP-2R (UniProt O95838)
Test: cell-based or functional assay

GLP-2R, sequence (O95838 whole entry): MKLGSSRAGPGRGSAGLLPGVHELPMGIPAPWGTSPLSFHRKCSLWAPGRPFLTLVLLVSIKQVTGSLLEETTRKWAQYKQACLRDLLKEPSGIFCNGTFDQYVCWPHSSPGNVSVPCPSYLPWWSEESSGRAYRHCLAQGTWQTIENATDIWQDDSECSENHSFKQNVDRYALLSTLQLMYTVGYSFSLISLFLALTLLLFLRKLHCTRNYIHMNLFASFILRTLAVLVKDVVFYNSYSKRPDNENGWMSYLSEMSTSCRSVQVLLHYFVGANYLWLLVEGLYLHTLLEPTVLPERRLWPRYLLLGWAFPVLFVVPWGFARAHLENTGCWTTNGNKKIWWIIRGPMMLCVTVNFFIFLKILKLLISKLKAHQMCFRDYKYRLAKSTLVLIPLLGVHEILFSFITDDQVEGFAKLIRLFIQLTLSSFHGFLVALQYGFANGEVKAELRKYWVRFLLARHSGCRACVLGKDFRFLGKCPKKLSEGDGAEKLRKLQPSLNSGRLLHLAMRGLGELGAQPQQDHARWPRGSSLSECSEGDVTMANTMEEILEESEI

EC50, luciferase reporter in GLP-2R/Luc-CHO cells (6 h stimulation): 4.7 nM
Substance: GLP-2 (from UniProt P01275 146-178) (peptide)

From patent publication US20220073563A1
